Measurements from US20230340429A1, “STEVIOL GLYCOSIDE HEXOSE TRANSFERASE AND GENE CODING FOR SAME” (SUNTORY HOLDINGS LIMITED, priority 2016, published 2023).

B1: UGT91D2: known Stevia rebaudiana UDP sugar-dependent glycosyltransferase, amino acid sequence SEQ ID NO: 4 (protein, listed as Stevia rebaudiana)
chain: MYNVTYHQNSKAMATSDSIVDDRKQLHVATFPWLAFGHILPYLQLSKLIAEKGHKVSFLSTTRNIQRLSSHISPLINVVQLTLPRVQELPEDAEATTDVHPEDIPYLKKASDGLQPEVTRFLEQHSPDWIIYDYTHYWLPSIAASLGISRAHFSVTTPWAIAYMGPSADAMINGSDGRTTVEDLTTPPKWFPFPTKVCWRKHDLARLVPYKAPGISDGYRMGLVLKGSDCLLSKCYHEFGTQWLPLLETLHQVPVVPVGLLPPEIPGDEKDETWVSIKKWLDGKQKGSVVYVALGSEVLVSQTEVVELALGLELSGLPFVWAYRKPKGPAKSDSVELPDGFVERTRDRGLVWTSWAPQLRILSHESVCGFLTHCGSGSIVEGLMFGHPLIMLPIFGDQPLNARLLEDKQVGIEIPRNEEDGCLTKESVARSLRSVVVEKEGEIYKANARELSKIYNDTKVEKEYVSQFVDYLEKNARAVAIDHES
B2: UGT91D2L #16: novel Stevia rebaudiana UGT highly homologous with UGT91D2, amino acid sequence SEQ ID NO: 2 (protein, listed as Stevia rebaudiana)
chain: MYNVTYHQNSKAMATSDSIVDDRKQLHVATFPWLAFGHILPFLQLSKLIAEKGHKVSFLSTTRNIQRLSSHISPLINVVQLTLPRVQELPEDAEATTDVHPEDIPYLKKASDGLQPEVTRFLEQHSPDWIIYDYTHYWLPSIAASLGISRAHFSVVTPWAIAYMGPSADAMINGSDGRTTVEDLTTPPKWFPFPTKVCWRKHDLARLVPYKAPGISDGYRMGLVLKGSDCLLFKCYHEFGTQWLPLLETLHQVPVVPVGLLPPEIPGDEKDETWVSIKKWLDGKQKGSVVYVALGSEALVSQTEVVELALGLELSGLPFVWAYRKPKGPAKSDSVELPDGFVERTRDRGLVWTSWAPQLRILSHESVCGFLTHCGSGSIVEGLMFGHPLIMLPLFGDQPLNARLLEDKQVGIEIPRNEEDGCLTKESVARSLRSVVVENEGEIYKANARELSKIYNDTKVEKEYVSQFVDFLEKNARAVAIDHES

Experiments:
[1] = test system: Saccharomyces cerevisiae strain YPH499; experiment: Production of Reb.C from steviol in yeast coexpressing UGTs and AtRHM2; format: cell-based; conditions: yeast coexpressing UGT85C2, UGT74G1, UGT76G1 and AtRHM2; 0.5 μg or 2 μg of steviol per 1 ml; HPLC, LC-MS
From the text: [Example 5] RebC synthesis by fermentative production using yeast Various steviol glycosides were produced from steviol in yeast. First, yeast that simultaneously expresses the 4 glycosylation enzyme genes UGT85C2 (SEQ ID NO: 7), UGT91D2 (SEQ ID NO: 3), UGT74G1 (SEQ ID NO: 9), and UGT76G1 (SEQ ID NO: 11) or the 4 genes UGT85C2, UGT91D2L #16, UGT74G1, and UGT76G1 from Stevia rebaudiana and the UDP-rhamnose synthase gene AtRHM2 (SEQ ID NO: 13) from Arabidopsis thaliana has been created.
The plasmids set forth in Table 1 were introduced into the Saccharomyces cerevisiae strain YPH499 (ura3-52 lys2-801^amber ade2-101^ochre trp1-Δ63 his3-Δ200 leu2-Δ1 a) as a host by the lithium acetate method. Those that grew on SC-Trp&Ura&His agar medium (6.7 g of Yeast nitrogen base without amino acids, 20 g of glucose, 1.3 g of amino acid mixture powder Trp&Ura&His, 20 g of Bacto agar, per 1 L) were selected as transformant strains.
First, 10 ml of SC-Trp&Ura&His liquid medium (SC-Trp&Ura&His agar medium without Bacto agar) was inoculated each transformant strain as a preculture and cultured with shaking at 30° C. for 1 day. […]
The obtained glycoside sample was analyzed with high performance liquid chromatography (HPLC). […]

[2] = in vitro rhamnosylation activity (RhaT) of Escherichia coli-expressed UGT protein with UDP-rhamnose; format: biochemical; conditions: recombinant protein, LC-MS
Method: (§1) The standard enzymatic reaction conditions are as follows. A reaction solution (2 mM UDP-glucose, 0.1 mM sugar receptor substrate, 100 mM potassium phosphate buffer (pH 7.5), 25 μl of purified enzyme solution) was prepared to 50 μl with distilled water and incubated at 30° C. for 1 hour to react. The LC-MS analysis of 5 μl of the enzymatic reaction solution was carried out under the following conditions.
(§2) • Column: Imtakt SM-C18 3.0 um 4.6 mm I.D.×250 mm • Mobile phase: A: MilliQ Water (+0.2% acetic acid), • B: Methanol • Gradient: 0 to 5 min (B conc 10% constant), 5 to 20 min (B conc 10%→70%), 20 to 25 min (B conc 70%→100%), 25 to 35 min (B conc 100% constant), 35 to 36 min (B conc 100%→10%), 45 min end of analysis • Flow rate: 0.4 mL/min • Column oven: 40° C.
(§3) Evaluation of Mutants 1 and 2 was then made using the protein expressed in Escherichia coli in the same manner as in Example 4. The glucosylation activity (GlcT) and the rhamnosylation activity (RhaT) were evaluated using UDP-glucose and UDP-rhamnose, respectively, as the sugar donor and using rubusoside as the substrate, which is a sugar receptor. Stevioside and dulcoside A were produced as the reaction products in the former and in the latter, respectively.

[3] = in vitro glucosylation activity (GlcT) of Escherichia coli-expressed UGT protein with UDP-glucose; format: biochemical; conditions: recombinant protein, 30° C. 1 hour, LC-MS
Method: as §1, §2, §3

Molecule | amount of Reb.C produced [1] | activity to rhamnosylate rubusoside to produce dulcoside A [2] | activity to glucosylate rubusoside to produce stevioside [3]
B1 | Reb.C was produced | production of dulcoside A | production of stevioside
B2 | higher than that in the strain A-5678 expressing UGT91D2 | markedly higher than SrUGT91D2 | weaker than SrUGT91D2
